The source of these data is the DeepSol protein solubility set.

The data set can be described thus: soluble on expression in E. coli; label from the status in PepcDB or PDB records.
As to “MHHHHHHENLYFQGSTSENITQKVVWVEESDKRSFLLDLLNATGKDSLTLVFVETKKGADSLEDFLYHEGYACTSIHGDRSQRDREEALHQFRSGKSPILVATAVAARGLDISNVKHVINFDLPSDIEEYVHRIGRTGRVGNLGLATSFFNERNINITKDLLDLLVEAKQEVPSWLENMAYEHHY”, the “soluble on expression in E. coli” value was “soluble”. As to “MLTIIKTILDVIVGVKERDYVKNTFNQLLKEKNITNYQYIRTAGNQILIDDRDILYVIHDKGWVSRGYGRITDIELSIDDSVAFQSSLSSATGRAIAGGVLAGGVGAIIGGVTGRKNGKKIVHRITLTISFNTPDRPYARVTFLDNQQGVDIYSDEYKRAEEDALYWSKLISSLMN”, the “soluble on expression in E. coli” value is on record as “not soluble”. As to “MKIIFLLFGFIFHPNNAQFDKSGVQQTLDAHNEFRSSIAKGTYVTKGLLHAPATNIMKMKWNVTIATAAQNHANKCPKGHDGPLEGVSGECMWSGHINASKGVNHLGAVAAKAWSSEYTKKGWETDVMSDEFFNSGVGHAIIMTWYSQVNVGCGVKLCQKEGDYQLAIVVCKYWGEGQGNGKIMYESGPTCSACPPNTTCDQATGLCDSKIPDIPEPIYKYDELVNSKPAYTVVMGFFLMIIVQLI”, the “soluble on expression in E. coli” value is given as “not soluble”. In the case of “VINQVESASKVIDWPLALKRSANKADLAKEMLLGLVESLPETQLSIREAIDVQDIAQIKRLVHKLNGACCYTGTPNLAKITIQLETQLKMGLSTEELEPEFLEFFEHIEQVLFAVPEALKEMSEN”, the “soluble on expression in E. coli” value is given as “not soluble”. For the sequence “MISPSKKRTILSSKNINQKPRAVVKGNELRSPSKRRSQIDTDYALRRSPIKTIQISKAAQFMLYEETAEERNIAVHRHNEIYNNNNSVSNENNPSQVKENLSPAKICPYERAFLREGGRIALKDLSVDEFKGYIQDPLTDETIPLTLPLGDKKISLPSFITPPRNSKISIFFTSKHQGQNPETKISRSTDDVSEKKVVRKLSFHVYEDE”, the “soluble on expression in E. coli” value is reported as “not soluble”.

On to “MIGKCTHVVDCRETMGMGEGGGIAQRGTFAQCGSEVLAVAMSPGRRHITKPVCEITFALREANIMTSTIVLNAGAGVPQDAPSAGAGSLFGLTPAEVEQMKRHKLLVVHLGGVKNHITYKARLILRNVDRPCIIICEYPVDFEDFAKIGVRTRAVMPDEPKTKGTIVDIVSGVIRGETCPQEKLDEIIRKVKLALGGALEHHHHHH”, for which the “soluble on expression in E. coli” value was “not soluble”.

For “RPKLTDGVQSGDVQGDRALVWSRTDRPARMIVEWDTRSVFSEPRRLVSPVTDERLDYTARIDLRGLPADQSIFYRVRFEDARDGSLSKPWFGHLRSAPSEARNIRFVWSGDTCGQGFGINPDIGGMRIYEAMRRRQPDFFLHSGDTIYADGPIPERIETESGRIWRNRVTEAKSKVAETLDEFRGNYRYNLLDDNLRRFNAEVPQIWQWDDHETTNNWSSSKQLDERYQVKDIDVLAARARQAFLEYAPLRFQRQGRDGRIYRKVAYGPLLDVFVLDMRSYRGGNSANLQARRSAATDFLGREQLQWLKRELRGSRAQWKVIAADMPIGLCVPDGKDAQGRDRWEAIANGNDGAALGRELEIADLLRFVQRAGVRNTVWLTADVHYCAAHHYSPERAAFKDFAPFWEFVAGPLNAGSFGPNALDGTFGPQVMFQKAPLVQNSSPFAGYQFFGEVEIDAQSRALTVTLRDLDGEPVFSQELQPD”, the “soluble on expression in E. coli” value is given as “not soluble”. As for “MQEVKQWPVKIMLVHPKAPFLKGEKIVIAADCAVLVNRDIRDRFESDAVIIGCPMLEDPRRMFERIKMIVAESDAKLEVYTMEVPCCHALHLMVEKAKEEHGKQTESEKYIVRVSGAVEPYSKKIDESMIEAERRAHRGH”, the “soluble on expression in E. coli” value is on record as “not soluble”. Regarding “MAILYSKMKRSVTIKLQPSKEQEKILFELADVGAKVWNRVNYLRRQEFFEGKLVDFNRTEKIVYEEFKQETGSATVQQIARKNAEAWRSFFTNCPSGSSQNHQTTLEHHHHHH”, the “soluble on expression in E. coli” value is given as “not soluble”. Under “MALACTDSANSTFSRVDSPTSGPSDQLTTHDLDRHIEKLMRCELIAEQDVKTLCAKAREILAEEGNVQVIDSPVTICGDIHGQFYDLMELFKVGGPVPNTNYLFLGDFVDRGFYSVETFLLLLALKARYPDRMMLIRGNHESRQITQVYGFYDECLRKYGNASVWKHCTEVFDYLSLAAVIDGKVFCVHGGLSPSISTMDQIRVIDRKQEVPHDGPMCDLLWSDPEEGNVGWGLSPRGAGYLFGADASKTFCETNGVDLICRAHQLVMEGYKWHFNEKVLTVWSAPNYCYRCGNVAAILELDENLNKEFTIFEAAPQENRGAPAKKPHADYFL” stands “not soluble”.

For the sequence “MEDVVLPLKKVLRVATEADYKCVAENGDSCQKAFLLCDEKIRERELDMSLVDVDYTFDRNKIIFYFTAEGRVDFRELVKDLASVFRTRIELRQIGVRDEAKLEHHHHHH”, the “soluble on expression in E. coli” value is given as “not soluble”.

For “MMLSLNNLQNIIYNPVIPYVGTIPDQLDPGTLIVICGHVPSDADRFQVDLQNGSSVKPRADVAFHFNPRFKRAGCIVCNTLINEKWGREEITYDTPFKREKSFEIVIMVLKDKFQVAVNGKHTLLYGHRIGPEKIDTLGIYGKVNIHSIGFSFSSDLQSTQASSLELTEISRENVPKSGTPQLSLPFAARLNTPMGPGRTVVVKGEVNANAKSFNVDLLAGKSKDIALHLNPRLNIKAFVRNSFLQESWGEEERNITSFPFSPGMYFEMIIYCDVREFKVAVNGVHSLEYKHRFKELSSIDTLEINGDIHLLEVRSW”, the “soluble on expression in E. coli” value is “soluble”.

On to “SASKIKGRPPKQPKVTPALPSNDSQQLHENNPGNNLALETCGESSSSHGTGGPKPGPSKKTLNERKRKYGVSVNKTVQNIEWNVDHFLKVQHERRQELYKDYSHQFLTLVMMWNIDVDQIKKQAGKLSDILDEQQKLFQQFQSIHMQKIEEFKELCDRHLKNLQAIKCCRRKAIIEEARKLMDYLEKRVTEETVHVNKQEAKDGVQSSLLSLLIS”, for which the “soluble on expression in E. coli” value is on record as “soluble”. “MSSRKELANAIRALSMDAVQKAKSGHPGAPMGMADIAEVLWRDFLKHNPQNPSWADRDRFVLSNGHGSMLIYSLLHLTGYDLPMEELKNFRQLHSKTPGHPEVGYTAGVETTTGPLGQGIANAVGMAIAEKTLAAQFNRPGHDIVDHYTYAFMGDGCMMEGISHEVCSLAGTLKLGKLIAFYDDNGISIDGHVEGWFTDDTAMRFEAYGWHVIRDIDGHDAASIKRAVEEARAVTDKPSLLMCKTIIGFGSPNKAGTHDSHGAPLGDAEIALTREQLGWKYAPFEIPSEIYAQWDAKEAGQAKESAWNEKFAAYAKAYPQEAAEFTRRMKGEMPSDFDAKAKEFIAKLQANPAKIASRKASQNAIEAFGPLLPEFLGGSADLAPSNLTLWSGSKAINEDAAGNYIHYGVREFGMTAIANGISLHGGFLPYTSTFLMFVEYARNAVRMAALMKQRQVMVYTHDSIGLGEDGPTHQPVEQVASLRVTPNMSTWRPCDQVESAVAWKYGVERQDGPTALILSRQNLAQQERTEEQLANIARGGYVLKDCAGQPELIFIATGSEVELAVAAYEKLTAEGVKARVVSMPSTDAFDKQDAAYRESVLPKAVTARVAVEAGIADYWYKYVGLNGAIVGMTTFGESAPAELLFEEFGFTVDNVVAKAKELLHHHHHH”: the “soluble on expression in E. coli” value is recorded as “soluble”.

Turning to “MGSDKIHHHHHHMSVETLPIILKELRLVSLLPHWQPLAEKAREQHWPVERYLAELCQLELSCREQKRLHRGLKEATLPIGKYLDTYDFSEVEGLSKKQVWHLADNAEWLKTGDNILLFGASGLGKTHIAAGLGYRLVEQGHRVKFMSASLLVQHLQKAKEELRLPEALVKLDRFAVLILDDLGYVQKSTEETSVLFELIAHRYERYSLIITSNQSFEDWDKLFSDTVMTVAAIDRLIHHAKILQCKGESYRRKEAQNKLN”, the “soluble on expression in E. coli” value is on record as “not soluble”. Turning to “MGSDKIHHHHHHGDDDDSSSSGNWQDLSKTYEGKSVNLVMGEVTVPVDGKSVVIAASSAEKASVTLNNIIPENKSVAIDAALKEADGTYTFTGESTVGDCVVSVNGTVKGGVASVVYTRKLTSSIVGNWSLKVGVEAIYANIVTGNSTIDDLVRMIKPAISNLIWGKVSAVNVNLPEDGIFDVSWRPIGASEDKGIGEITKMASIQYCVVDGKFMVAVDKNYVTVLTTLLQQAAGDKLEAAGISIDEIMKLLVDLGGYYGLPLNMKVDGSEATFYADKDLIVPVLTMIAPILKPMVPENYQQMVDMVLQLLPNAKTLEFGLNFTK”, the “soluble on expression in E. coli” value was “not soluble”. Then “MQRKLKVTSLEPGTVVITEQAVDTCFKAEFEQIVLGKRVIRKTDLNKKLVQELLLCSAELSEFTTVVGNTMCTLDFYEGQGRLDGALCSYTEKDKQAYLEAAYAAGVRNIEMESSVFAAMCSACGLQAAVVCVTLLNRLEGDQISSPRNVLSEYQQRPQRLVSYFIKKKLSKA”, with “not soluble”.
